Source: patent publication US20230346919A1

Target: SARS-CoV-2 spike SΔ21 displayed on VSV-eGFP-SARS-CoV-2-SΔ21 particles (SARS-CoV-2 isolate Wuhan-Hu-1) (UniProt P0DTC2)
Test: cell-based or functional assay

human ACE2-Fc (hACE2 residues 1-615, HRV-3C site, human IgG1 Fc) (from UniProt Q9BYF1 18-615) (Fc fusion)
EC50, inhibition of VSV-SARS-CoV-2-SΔ21 infection (GRNT, Vero E6 cells): 29 µg/mL
